These results are taken from patent US20250339466A1 (published 2025).

Positions count from the first letter of the chain named.

Test [1] addresses Bio-huBCMA-His (biotinylated human BCMA with His tag) (human) (UniProt Q02223). The test can be described thus: ELISA, periplasmic extract of scFv on biotinylated human BCMA-His.
For test [2], the target named is T1, Bio-cyBCMA-His (biotinylated cynomolgus BCMA with His tag) (cynomolgus, UniProt A0A2K5UD97 1-53, Biotinylated (site not stated); C- or N-terminal His tag not carried in the letters).
T1 construct: not shown: biotin label
T1 sequence (A0A2K5UD97 entry or part of it limits assumed, form in doubt): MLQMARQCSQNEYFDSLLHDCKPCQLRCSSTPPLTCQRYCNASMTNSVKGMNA
Briefly: ELISA, periplasmic extract of scFv on biotinylated cynomolgus BCMA-His.

In test [3] the target is T2, human BCMA on BCMA overexpressing CHO cells (human, UniProt Q02223 1-184).
T2 construct: also called hBCMA CHO; Hu BCMA (FACS)
T2 chain: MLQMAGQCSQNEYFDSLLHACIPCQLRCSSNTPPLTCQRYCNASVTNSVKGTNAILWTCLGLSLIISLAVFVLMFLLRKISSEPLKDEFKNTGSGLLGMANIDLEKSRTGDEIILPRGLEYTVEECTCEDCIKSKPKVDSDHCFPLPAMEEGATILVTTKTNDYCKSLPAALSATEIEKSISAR
The test can be described thus: flow cytometry, periplasmic extract of scFv on cells with human BCMA.

B1: anti-BCMA scFv clone from phage display, periplasmic extract (Table 3, first row; VH printed there as SEQ ID NO: 26, VL as SEQ ID NO: 23) (scFv, V domains shown, part only)
VH: QITLRESGGDVVQPGRSLRLSCAASGFTFSSYAIHWVRQAPGKGLEWVAVTWHDGSNKYYAESVMGRFTISRDNSKNTLYLHMNSLRAEDTGVYYCARAKFGEPQYFQHWGQGTLVTVSS
VL: DIVMTQSPSFLSASVGDRVTITCRASQGISSYLAWYQQKPGKAPKLLIYAASTLQSGVPSRFSGSGSGTEFTLTISSLQPEDFATYYCQQLNSYPWTFGQGTKVDIK
modifications: linker not stated
In turn, B1 showed a PE ELISA Bio-huBCMA-His in test [1] of 1.1.

B2: anti-BCMA scFv clone from phage display, periplasmic extract (Table 3, third row; VH printed there as SEQ ID NO: 10, VL as SEQ ID NO: 27) (scFv, V domains shown, part only)
VH: B1 VH with Q1E, I2V, T3Q, R5V, L115T
VL: B1 VL with W96F, Q100P
modifications: linker not stated
Molecule B2 gave a PE ELISA Bio-huBCMA-His in test [1] of 0.516.

B3: anti-BCMA scFv clone from phage display, periplasmic extract (Table 3, second row; VH printed there as SEQ ID NO: 26, VL as SEQ ID NO: 25) (scFv, V domains shown, part only)
VH: B1 VH
VL: B1 VL with S30N, S31N, K42I, S63G, N92K, W96F, Q100P, D105E
modifications: linker not stated
In test [1], B3 yielded a PE ELISA Bio-huBCMA-His of 1.11.

B4: anti-BCMA scFv clone from phage display, periplasmic extract (Table 3, third row; VH printed there as SEQ ID NO: 10, VL as SEQ ID NO: 27) (scFv)
chain: EVQLVESGGDVVQPGRSLRLSCAASGFTFSSYAIHWVRQAPGKGLEWVAVTWHDGSNKYYAESVMGRFTISRDNSKNTLYLHMNSLRAEDTGVYYCARAKFGEPQYFQHWGQGTTVTVSSDIVMTQSPSFLSASVGDRVTITCRASQGISSYLAWYQQKPGKAPKLLIYAASTLQSGVPSRFSGSGSGTEFTLTISSLQPEDFATYYCQQLNSYPFTFGPGTKVDIK
As for B4, in test [2], the “PE Elisa Bio-cyBCMA-His” value turned out to be 0.126. Moreover, the “PE FACS % Binding Hu BCMA” value in test [3] came out at 47.2%.

B5: anti-BCMA scFv clone from phage display, periplasmic extract (Table 3, first row; VH printed there as SEQ ID NO: 26, VL as SEQ ID NO: 23) (scFv)
chain: B4 chain with E1Q, V2I, Q3T, V5R, T115L, F216W, P220Q
Consider B5, for which the “PE Elisa Bio-cyBCMA-His” value in test [2] stood at 0.147. The “PE FACS % Binding Hu BCMA” value in test [3] was found to be 89%.

B6: anti-BCMA scFv clone from phage display, periplasmic extract (Table 3, second row; VH printed there as SEQ ID NO: 26, VL as SEQ ID NO: 25) (scFv)
chain: QITLRESGGDVVQPGRSLRLSCAASGFTFSSYAIHWVRQAPGKGLEWVAVTWHDGSNKYYAESVMGRFTISRDNSKNTLYLHMNSLRAEDTGVYYCARAKFGEPQYFQHWGQGTLVTVSSDIVMTQSPSFLSASVGDRVTITCRASQGINNYLAWYQQKPGIAPKLLIYAASTLQSGVPSRFGGSGSGTEFTLTISSLQPEDFATYYCQQLKSYPFTFGPGTKVEIK
As to B6, in test [2], the “PE Elisa Bio-cyBCMA-His” value amounted to 0.122. Moreover, in test [3], the “PE FACS % Binding Hu BCMA” value was determined as 54.6%.
